Measured values: patent publication US20250282876A1, “STABLE Fc FRAGMENTS, CONJUGATES, COMPOSITIONS, AND METHODS OF USE” (PURDUE RESEARCH FOUNDATION, priority 2022, published 2025)

Columns and labels:
[1] = target: His-tagged human FcγR variant CD32b (human) (UniProt P31994); test: BLI (Octet HTX), His-tagged FcγR on anti-Penta-HIS biosensors, Fc in solution, 1:1 fit
[2] = target: His-tagged human FcγR variant CD32b (human) (UniProt P31994); test: BLI (Octet HTX), His-tagged FcγR on anti-Penta-HIS biosensors, 1:1 fit; * denotes weak binding/inaccurate KD

| Kd [1] [nM] | Kd [2] [nM] | Substance |
| --- | --- | --- |
| 1.34 | – | IgG1-CH2-CH3-DLE mutant (Ser239Asp/Ala330Leu/Ile332Glu), monomeric Fc fragment (from UniProt P0DOX5 218-449) |
| – | 3760 | IgG1-CH2-CH3-WT, wild-type Fc region of human IgG1 (from UniProt P0DOX5 218-449) |
